Experimental data: publication PMC6704074, “Structural basis for lamin assembly at the molecular level” (Nature Communications, 2019)
Substitutions are numbered along the chain they refer to. Names may count otherwise. “And” between values parts separate entries of the source, which are not always exact repeats. Equal entries are not always repeated.

B1: lamin 286–400 R388C mutant (domain or fragment, human, UniProt P02545 286-400, looked up)
chain: GAAHEELQQSRIRIDSLSAQLSQLQKQLAAKEAKLRDLEDSLARERDTSRRLLAEKEREMAEMRARMQQQLDEYQELLDIKLALDMEIHAYRKLLEGEEERLCLSPSPTSQRSRG
notes: lamin A/C, human, residues 286-400; runs at 14 kDa on SDS-PAGE; Reduced with 2 mM DTT and desalted before cross-linking; also called coil 2 (286–400) R388C; coil 2 R388C; source: E. coli BL21 (DE3), purified
B2: lamin 250–400 fragment (F3), without His tag (domain or fragment, human, UniProt P02545 250-400, looked up)
chain: AQHEDQVEQYKKELEKTYSAKLDNARQSAERNSNLVGAAHEELQQSRIRIDSLSAQLSQLQKQLAAKEAKLRDLEDSLARERDTSRRLLAEKEREMAEMRARMQQQLDEYQELLDIKLALDMEIHAYRKLLEGEEERLRLSPSPTSQRSRG
notes: lamin A/C, human, residues 250-400 (coil 2, residues 240-385, without its N-terminal ten residues); not called His-tagged there, so by the common procedure the tag would be cleaved; also called coil 2 fragment; C-terminal part of coil 2; source: E. coli BL21 (DE3), purified (Ni-NTA, TEV, HiTrap Q, SEC)
B3: His-F3 (His-tagged lamin A/C residues 250–400) (domain or fragment, human, UniProt P02545 250-400, looked up)
chain: B2 chain
notes: lamin A/C, human, residues 250-400; The plasmid also encodes a TEV site between the tag and the lamin residues (pProEx-HTa); also called his-tagged 250–400 fragment; coil 2 fragment; source: E. coli BL21 (DE3), purified (Ni-NTA, HiTrap Q, SEC; no TEV treatment); not shown: His tag, N-terminal, kept
B4: selenomethionine-labelled lamin A/C fragment (residues 1–300), His tag cleaved (domain or fragment, human, UniProt P02545 1-300, looked up)
chain: METPSQRRATRSGAQASSTPLSPTRITRLQEKEDLQELNDRLAVYIDRVRSLETENAGLRLRITESEEVVSREVSGIKAAYEAELGDARKTLDSVAKERARLQLELSKVREEFKELKARNTKKEGDLIAAQARLKDLEALLNSKEAALSTALSEKRTLEGELHDLRGQVAKLEAALGEAKKQLQDEMLRRVDAENRLQTMKEELDFQKNIYSEELRETKRRHETRLVEIDNGKQREFESRLADALQELRAQHEDQVEQYKKELEKTYSAKLDNARQSAERNSNLVGAAHEELQQSRIRID
modifications: selenomethionine-labelled
notes: lamin A/C, human, residues 1-300 (head, coil 1a, L1, coil 1b, L12, first half of coil 2); Four protomers (chains A-D) in the asymmetric unit: two parallel coiled-coil dimers (A:B, C:D) packed anti-parallel; also called lamin 300 fragment; N-terminal half fragment of human lamin A/C; source: E. coli B834 (DE3), M9 medium with L-(+)-selenomethionine, purified (Ni-NTA, TEV, HiTrap Q, SEC); not …
B5: lamin 300 fragment, wild type (human lamin A/C residues 1–300), His tag cleaved (domain or fragment, UniProt P02545 1-300, looked up)
chain: B4 chain
notes: lamin A/C, human, residues 1-300; Mostly a dimer by SEC-MALS; also called WT; lamin 1–300 fragment; source: E. coli BL21 (DE3), purified (Ni-NTA, TEV, HiTrap Q, SEC); not shown: His tag, N-terminal, cleaved
B6: lamin 300 fragment A146C mutant (human lamin A/C residues 1–300), His tag cleaved (domain or fragment, UniProt P02545 1-300, looked up)
chain: B4 chain with A146C
modifications: disulfide bond through Cys146 in the non-reduced protein
notes: lamin A/C, human, residues 1-300; Non-reduced: partly a disulfide-linked tetramer; with TCEP: dimer (A146C^R); also called lamin 300 A146C; A146C variant; source: E. coli BL21 (DE3), purified (Ni-NTA, TEV, HiTrap Q, SEC); not shown: His tag, N-terminal, cleaved

Key:
[1] = molecular target: B5; experiment: cross-linking; sulfo-SMPB (0-250 μM) added to 20 μM lamin 300 and 286-400 R388C, 1 h, 20 mM HEPES pH 7.5, 50 mM NaCl, 1 mM EDTA; SDS-PAGE bands digested with chymotrypsin, MS/MS; conditions: both partners purified
[2] = molecular target: the molecule itself; experiment: as above
[3] = molecular target: T1, His-tagged lamin 300 fragment, wild type (human lamin A/C residues 1–300) (human, UniProt P02545 1-300); experiment: pull-down; His-tagged lamin 300 (wild type, Y45C, L59R) on Ni-NTA resin; lamin 250-400 as prey; 20 mM Tris-HCl pH 8.0 with 50 or 150 mM NaCl; SDS-PAGE; conditions: both partners purified
T1 construct: lamin A/C, human, residues 1-300; The plasmid also encodes a TEV site between the tag and the lamin residues (pProEx-HTa); also called His-lamin; His-tagged wild-type lamin 300 fragment; source: E. coli BL21 (DE3), purified (Ni-NTA, HiTrap Q, SEC; no TEV treatment); not shown: His tag, N-terminal, kept
T1 sequence (looked up): B4 chain

[4] = molecular target: B6; experiment: pull-down; lamin 300 A146C coupled to CNBr-activated Sepharose; fragments at 66 μM; 20 mM Tris-HCl pH 8.0, 150 mM NaCl, non-reducing; Tris-blocked resin as control; SDS-PAGE; conditions: both partners purified
[5] = molecular target: T1, His-tagged lamin 300 fragment, wild …; experiment: ITC; His-lamin 300 (20 μM) in the cell, His-250-400 (160 μM) in the syringe; PBS, 25 °C, 19 injections of 2 μL; conditions: both partners purified
[6] = molecular target: T2, His-tagged lamin 300 fragment L59R mutant (human, UniProt P02545 1-300, L59R); experiment: as above; conditions: both partners purified
T2 construct: lamin A/C, human, residues 1-300, with the dilated cardiomyopathy mutation L59R; source: E. coli BL21 (DE3), purified (Ni-NTA, HiTrap Q, SEC; no TEV treatment)
T2 sequence (looked up): B4 chain with L59R

[7] = molecular target: B5; experiment: pull-down; His-F3 on Ni-NTA resin as bait; tag-cleaved lamin 300 proteins as prey; 20 mM Tris-HCl pH 8.0 with 150 or 50 mM NaCl, room temperature 30 min, wash with 20 mM imidazole; 2 mM TCEP for reduced A146C; SDS-PAGE; conditions: both partners purified
[8] = molecular target: B6; experiment: as above; conditions: both partners purified
[9] = molecular target: the molecule itself; experiment: crystal structure; SeMet-labelled lamin 1-300, His tag cleaved, 7 mg/mL; 0.1 M Tris-HCl pH 8.5, 0.9 M LiCl, 7% PEG 8000, 14 °C; SAD, 3.2 Å
[10] = molecular target: the molecule itself; experiment: SEC-MALS; 2.5 mg/ml, Superdex 200 Increase 5/150 GL, non-reducing buffer Tris-HCl pH 8.0, 150 mM NaCl

B1: binds [1]; binds [2].

B2: binds [3]; binds [4].

For B3, the binding result [5] was “binds”, the “fold higher binding affinity than the wild type (from KD values)” value [6] was roughly 40 fold and the binding result [7] was “binds”. B3: binds [8].

B4: binds [9].

In the case of B5, the “stoichiometry N” value [10] is reported as 2.

With B6 the “stoichiometry N” value [10] was 4 and 2.
